Measured values reported in patent US20170059576, “METHOD OF DETERMINING A PROTEIN IN A SAMPLE” (RHEINISCHE FRIEDRICH-WILHELMS UNIVERSITAT BONN, published 2017).
Positions count from the first letter of the chain named.

Legend:
Cytohesin-2 Sec7 domain [1] = biological target: T1, Cytohesin-2 Sec7 domain (UniProt Q99418 Q99418:72-201); experiment: filter; competition vs 32P-C10.35; IC50 only in figure; 3 mM MgCl2 in PBS, 0.005% Triton X-100, 37 C; conditions: tags: His (detected with anti-penta-His); expressed in E. coli; label: 5'-32P for radiolabeled tracer; stem with a double bulge
T1 sequence: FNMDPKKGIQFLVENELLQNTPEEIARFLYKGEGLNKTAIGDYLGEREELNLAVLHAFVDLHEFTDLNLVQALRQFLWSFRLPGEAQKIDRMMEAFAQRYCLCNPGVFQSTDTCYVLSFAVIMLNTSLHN
Method: (§1) To determine the affinity, ˜10 fmol of radiolabeled aptamer was incubated with protein dilution series for 30 min at 37° C. in 25 μL of buffer containing 1 mg/ml E. coli tRNA (Roche, Mannheim, Germany), 1 μg/ml BSA, 3 mM MgCl₂ in PBS, pH 7.4. For Sec7, 0.005% Triton X-100 was added and for c-Met-Fc, 1 mg/ml of BSA was used instead of 1 μg/ml. The aptamer-protein complexes were captured on a Protran™ nitrocellulose membrane (GE Healthcare) that was pre-incubated in 0.4 M KOH for 10 minutes, followed by washing with ddH₂O and PBS containing 3 mM MgCl₂, pH 7.4. After addition of the aptamer-protein solution, the filter was washed 4 times with PBS containing 3 mM MgCl₂, pH 7.4. Radioactivity was quantified using a Fujifilm Fla-3000 PhosphorImager and AIDA software package. The percentage of bound aptamer was calculated using equation 1:
(§2) Filter retention assays in which the 5′-functionalized aptamer competed with the non-functionalized aptamer for binding to Sec-7 were performed as described above to test the influence of the 5′-functionalization on aptamer binding.

Cytohesin-2 Sec7 domain [2] = biological target: T1, Cytohesin-2 Sec7 domain; experiment: filter; affinity not altered vs unfunctionalized C10.35; high UV cross-linking; also cross-links in H460 lysate (p104); conditions: tags: His (detected with anti-penta-His); expressed in E. coli; label: biotin; stem with a double bulge
Method: as §1, §2

Cytohesin-2 Sec7 domain [3] = biological target: T1, Cytohesin-2 Sec7 domain; experiment: 365 nm photo-crosslinking, Western blot; marginal at highest concentration only; no band in H460 lysate (p104); conditions: tags: His (detected with anti-penta-His); expressed in E. coli; label: biotin
Method: Incubation of the target protein Sec7 with the 5′-functionalized aptamer C10.35 was performed by mixing 250 nM of the aptamer with different protein concentrations at 37° C. for 30 min as described in Examples 2 and 4. Crosslinking also was performed on ice by illuminating at 365 nm for 10 minutes.
Further, the amount of cross-linking of the 5′-functionalized aptamer C 10.35 to Sec-7 was investigated after incubating […] 167 nm, 56 nm and 19 nM Sec-7 with 250 nM of the 5′-functionalized aptamers C10.35 and C10.35 C15T, followed by UV irradiation at 365 nm using SDS-PAGE, followed by western blotting using neutravidin-dylight™ 800 (Thermo Scientific) to visualize biotinylated proteins. Anti-penta-his (1:2000, Qiagen) was used to visualize the total amount of Sec7 and goat-anti-mouse-IgG-dylight™ 800 (Thermo Scientific) was used as a secondary antibody. The blots were scanned at 800 nm using an Odyssey scanner (Li-cor Biotechnology, Bad Homburg, Germany).

[4] = biological target: T2, c-Met ectodomain-Fc fusion (HGFR) (UniProt P08581 P08581:25-932); experiment: filter; competition vs 32P-trCLN3; PBS pH 7.4, 3 mM MgCl2, tRNA 1 mg/ml, BSA 1 mg/ml, 37 C; conditions: tags: human IgG1 Fc fusion; His (detected with anti-penta-His); R&D Systems; chain copies: 2; label: biotin; G4
T2 sequence (P08581 25-932, one chain of several): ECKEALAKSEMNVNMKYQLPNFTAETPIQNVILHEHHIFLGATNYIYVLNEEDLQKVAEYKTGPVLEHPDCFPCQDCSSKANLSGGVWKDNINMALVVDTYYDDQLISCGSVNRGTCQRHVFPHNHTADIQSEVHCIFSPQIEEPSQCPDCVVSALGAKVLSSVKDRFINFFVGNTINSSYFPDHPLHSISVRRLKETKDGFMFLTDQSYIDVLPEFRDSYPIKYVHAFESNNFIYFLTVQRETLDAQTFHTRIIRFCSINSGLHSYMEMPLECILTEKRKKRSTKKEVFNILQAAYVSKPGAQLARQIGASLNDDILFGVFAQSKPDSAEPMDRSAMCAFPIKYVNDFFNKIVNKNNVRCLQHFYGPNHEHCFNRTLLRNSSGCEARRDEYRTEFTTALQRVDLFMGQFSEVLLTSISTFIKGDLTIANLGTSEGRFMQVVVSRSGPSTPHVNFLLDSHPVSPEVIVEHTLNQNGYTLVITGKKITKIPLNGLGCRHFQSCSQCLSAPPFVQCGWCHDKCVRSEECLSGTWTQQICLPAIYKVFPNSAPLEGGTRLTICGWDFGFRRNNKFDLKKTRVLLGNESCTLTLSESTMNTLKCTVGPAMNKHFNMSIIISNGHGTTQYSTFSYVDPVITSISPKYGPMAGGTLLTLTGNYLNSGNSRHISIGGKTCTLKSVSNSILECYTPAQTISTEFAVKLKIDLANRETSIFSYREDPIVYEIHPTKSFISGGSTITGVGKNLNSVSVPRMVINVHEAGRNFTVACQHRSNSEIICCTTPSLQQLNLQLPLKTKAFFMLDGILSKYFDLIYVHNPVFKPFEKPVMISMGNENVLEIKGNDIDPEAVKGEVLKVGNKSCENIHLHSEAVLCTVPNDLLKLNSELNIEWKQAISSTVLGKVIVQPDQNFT
Method: as §1, with “1: […]” for “1:”

[5] = biological target: T2, c-Met ectodomain-Fc fusion (HGFR); experiment: filter; no binding in tested range; in photo-crosslinking 24-fold lower signal than ABAL-trCLN3 at 500 nM c-Met (p87); conditions: tags: human IgG1 Fc fusion; His (detected with anti-penta-His); R&D Systems; chain copies: 2; label: biotin
Method: as §1, with “1: […]” for “1:”

[6] = biological target: T2, c-Met ectodomain-Fc fusion (HGFR); experiment: filter; competition vs 32P-trCLN3; PBS pH 7.4, 3 mM MgCl2, tRNA, BSA, 37 C; nanomolar affinity stated; conditions: tags: human IgG1 Fc fusion; His (detected with anti-penta-His); R&D Systems; chain copies: 2; label: 5'-32P for radiolabeled tracer; G4 (two G-quadruplexes)

B1: C10.35 (ssDNA)
DNA: ACTCGGGAGGACTGCTTAGGATTGCGAACCCGGGT
- binding result (Cytohesin-2 Sec7 domain [1]): binds

B2: ABAL-C10.35 (ssDNA)
DNA: B1 DNA
modifications: 5'-hexylamine coupled Sulfo-SBED (phenyl azide, biotin)
- binding result (Cytohesin-2 Sec7 domain [2]): binds

B3: ABAL-C10.35 C15T (ssDNA)
DNA: B1 DNA with C15T
modifications: 5'-hexylamine coupled Sulfo-SBED (phenyl azide, biotin)
- binding signal (Cytohesin-2 Sec7 domain [3]): 7 fold lower cross-linking than ABAL-C10.35

B4: ABAL-trCLN3 (ssDNA)
DNA: TGGATGGTAGCTCGGTCGGGGTGGGTGGGTTGGCAAGTCT
modifications: 5'-hexylamine coupled Sulfo-SBED (phenyl azide, biotin)
- IC50 [4]: 0.05 µM

B5: ABAL-trCLN3 G25A (ssDNA)
DNA: B4 DNA with G25A
modifications: 5'-hexylamine coupled Sulfo-SBED (phenyl azide, biotin)
- binding result [5]: no binding

B6: trCLN3 (ssDNA)
DNA: B4 DNA
- IC50 [6]: 0.076 µM
